According to the supplement of paper PMC9112550, “Optimization of the antimicrobial peptide Bac7 by deep mutational scanning” (BMC Biology, 2022):

Tested on: Escherichia coli TOP10
Test: shrunken log2 fold change of peptide-encoding DNA abundance (4.5 h post-induction vs induction); higher = less antimicrobial activity (less host growth inhibition)
Details: time post-induction: 4.5 h; library: site-saturation at positions 5, 18, 19, 20
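Further: peptides expressed intracellularly from a pBAD plasmid library in pooled LB shake-flask culture, induced with 0.3% L-arabinose, DNA abundance read by NGS, three biological replicates, DESeq2 with apeglm shrinkage.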

| Sequence | shrunken log2 fold change |
| --- | --- |
| RRIRVRPPRLPRPRPRPPQHPRP | 0.186 |
| RRIRTRPPRLPRPRPRPEWHPRP | 0.0594 |
| RRIRPRPPRLPRPRPRPHKIPRP | -0.193 |
| RRIRDRPPRLPRPRPRPYKSPRP | -0.106 |
| RRIRVRPPRLPRPRPRPRRGPRP | 0.579 |
| RRIRLRPPRLPRPRPRPWLCPRP | -0.0198 |
| RRIRLRPPRLPRPRPRPEMWPRP | 0.204 |
| RRIRWRPPRLPRPRPRPIEIPRP | -0.101 |
| RRIRGRPPRLPRPRPRPMQHPRP | 1.24 |
| RRIRDRPPRLPRPRPRPECPPRP | 0.0118 |
| RRIRYRPPRLPRPRPRPRKNPRP | -0.268 |
| RRIRCRPPRLPRPRPRPTMAPRP | -0.0611 |
| RRIRFRPPRLPRPRPRPQREPRP | 0.296 |
| RRIRYRPPRLPRPRPRPVMIPRP | -0.596 |
| RRIRDRPPRLPRPRPRPQCRPRP | 0.0338 |
| RRIRARPPRLPRPRPRPNRAPRP | -0.0385 |
| RRIRCRPPRLPRPRPRPYGGPRP | -0.136 |
| RRIRPRPPRLPRPRPRPYWDPRP | -0.376 |
| RRIRGRPPRLPRPRPRPMWEPRP | 1.3 |
| RRIRHRPPRLPRPRPRPLVEPRP | -0.0289 |
| RRIRPRPPRLPRPRPRPMPNPRP | 0.156 |
| RRIRSRPPRLPRPRPRPAWGPRP | 0.51 |
| RRIRNRPPRLPRPRPRPENNPRP | -0.106 |
| RRIRNRPPRLPRPRPRPIHHPRP | -0.383 |
| RRIRLRPPRLPRPRPRPRWAPRP | 0.145 |

| Sequence | shrunken log2 fold change |
| --- | --- |
| RRIRKRPPRLPRPRPRPMDQPRP | 0.0935 |
| RRIRYRPPRLPRPRPRPNKMPRP | -1.19 |
| RRIRYRPPRLPRPRPRPGWNPRP | -0.182 |
| RRIRDRPPRLPRPRPRPTGVPRP | -0.0117 |
| RRIRFRPPRLPRPRPRPTFTPRP | -0.157 |
| RRIRARPPRLPRPRPRPEALPRP | 1.71 |
| RRIRLRPPRLPRPRPRPKLVPRP | -0.0181 |
| RRIRFRPPRLPRPRPRPMYKPRP | -0.662 |
| RRIRKRPPRLPRPRPRPSLSPRP | 0.549 |
| RRIRCRPPRLPRPRPRPILAPRP | 0.127 |
| RRIRERPPRLPRPRPRPDKIPRP | -0.0617 |
| RRIRFRPPRLPRPRPRPKVVPRP | 0.291 |
| RRIRQRPPRLPRPRPRPWCLPRP | -0.275 |
| RRIRLRPPRLPRPRPRPLIQPRP | -0.247 |
| RRIRRRPPRLPRPRPRPWMIPRP | -0.26 |
| RRIRTRPPRLPRPRPRPDIWPRP | -0.392 |
| RRIRERPPRLPRPRPRPCGSPRP | 0.0206 |
| RRIRFRPPRLPRPRPRPTLQPRP | -0.107 |
| RRIRHRPPRLPRPRPRPTMVPRP | -0.224 |
| RRIRGRPPRLPRPRPRPAAEPRP | 2.52 |
| RRIRIRPPRLPRPRPRPPCIPRP | -0.0558 |
| RRIRYRPPRLPRPRPRPGQTPRP | -0.0773 |
| RRIRPRPPRLPRPRPRPAWQPRP | 0.277 |
| RRIRGRPPRLPRPRPRPSFCPRP | 0.348 |
| RRIRGRPPRLPRPRPRPKIVPRP | 0.278 |

| Sequence | shrunken log2 fold change |
| --- | --- |
| RRIRCRPPRLPRPRPRPWGEPRP | -0.0965 |
| RRIRYRPPRLPRPRPRPYYDPRP | -0.15 |
| RRIRCRPPRLPRPRPRPCRKPRP | -0.0115 |
| RRIRCRPPRLPRPRPRPAFEPRP | 0.0704 |
| RRIRCRPPRLPRPRPRPVLHPRP | -0.199 |
| RRIRYRPPRLPRPRPRPYENPRP | 0.0075 |
| RRIRDRPPRLPRPRPRPDAIPRP | 0.903 |
| RRIRHRPPRLPRPRPRPCSSPRP | 0.032 |
| RRIRVRPPRLPRPRPRPFVCPRP | -0.744 |
| RRIRERPPRLPRPRPRPSEGPRP | 0.00843 |
| RRIRKRPPRLPRPRPRPCLIPRP | -0.36 |
| RRIRWRPPRLPRPRPRPCNCPRP | -0.289 |
| RRIRRRPPRLPRPRPRPGRIPRP | 0.0214 |
| RRIRVRPPRLPRPRPRPPYCPRP | -0.0177 |
| RRIRGRPPRLPRPRPRPAFGPRP | 0.476 |
| RRIRDRPPRLPRPRPRPESDPRP | 0.000356 |
| RRIRVRPPRLPRPRPRPNEAPRP | -0.0128 |
| RRIRLRPPRLPRPRPRPWGAPRP | 0.261 |
| RRIRIRPPRLPRPRPRPGTIPRP | -0.438 |
| RRIRHRPPRLPRPRPRPTMYPRP | 0.000437 |
| RRIRTRPPRLPRPRPRPTDYPRP | -0.263 |
| RRIRLRPPRLPRPRPRPSAHPRP | 0.0318 |
| RRIRVRPPRLPRPRPRPYQPPRP | -0.509 |
| RRIRSRPPRLPRPRPRPDLTPRP | 0.0442 |
| RRIRMRPPRLPRPRPRPDNVPRP | -0.0207 |

| Sequence | shrunken log2 fold change |
| --- | --- |
| RRIRERPPRLPRPRPRPMYLPRP | -1.99 |
| RRIRTRPPRLPRPRPRPYQNPRP | -0.3 |
| RRIRDRPPRLPRPRPRPPITPRP | -0.217 |
| RRIRMRPPRLPRPRPRPKASPRP | 1.97 |
| RRIRSRPPRLPRPRPRPYKHPRP | -0.734 |
| RRIRGRPPRLPRPRPRPTHAPRP | 1.3 |
| RRIRNRPPRLPRPRPRPRSKPRP | 0.0945 |
| RRIRRRPPRLPRPRPRPKNTPRP | -0.0507 |
| RRIRARPPRLPRPRPRPIQLPRP | -0.0651 |
| RRIRFRPPRLPRPRPRPNDGPRP | -0.222 |
| RRIRERPPRLPRPRPRPFCLPRP | -0.558 |
| RRIRGRPPRLPRPRPRPMDIPRP | 0.0445 |
| RRIRMRPPRLPRPRPRPKHHPRP | 0.148 |
| RRIRIRPPRLPRPRPRPVYHPRP | -0.262 |
| RRIRRRPPRLPRPRPRPSRHPRP | 0.319 |
| RRIRRRPPRLPRPRPRPAVCPRP | 0.66 |
| RRIRVRPPRLPRPRPRPHYIPRP | -0.589 |
| RRIRIRPPRLPRPRPRPTLTPRP | -0.13 |
| RRIRNRPPRLPRPRPRPHWVPRP | -0.0512 |
| RRIRVRPPRLPRPRPRPPMVPRP | 0.0314 |
| RRIRYRPPRLPRPRPRPCELPRP | -0.0555 |
| RRIRNRPPRLPRPRPRPNSTPRP | 2.34 |
| RRIRQRPPRLPRPRPRPDLFPRP | -0.0321 |
| RRIRVRPPRLPRPRPRPAGCPRP | 0.459 |
| RRIRRRPPRLPRPRPRPHQNPRP | 0.769 |

| Sequence | shrunken log2 fold change |
| --- | --- |
| RRIRLRPPRLPRPRPRPTLMPRP | 0.0897 |
| RRIRYRPPRLPRPRPRPWCPPRP | -0.28 |
| RRIRMRPPRLPRPRPRPNNMPRP | -0.309 |
| RRIRIRPPRLPRPRPRPWETPRP | -0.0306 |
| RRIRMRPPRLPRPRPRPNQIPRP | 0.283 |
| RRIRIRPPRLPRPRPRPWRMPRP | -0.473 |
| RRIRCRPPRLPRPRPRPWYQPRP | -0.272 |
| RRIRCRPPRLPRPRPRPHQIPRP | -0.389 |
| RRIRHRPPRLPRPRPRPTHAPRP | 0.233 |
| RRIRRRPPRLPRPRPRPVPRPRP | 0.518 |
| RRIRPRPPRLPRPRPRPRGVPRP | 0.347 |
| RRIRLRPPRLPRPRPRPNSNPRP | -0.335 |
| RRIRNRPPRLPRPRPRPGGPPRP | 0.37 |
| RRIRSRPPRLPRPRPRPHKTPRP | -0.258 |
| RRIRQRPPRLPRPRPRPPCWPRP | 0.102 |
| RRIRTRPPRLPRPRPRPTRYPRP | 0.228 |
| RRIRQRPPRLPRPRPRPWTNPRP | -0.00183 |
| RRIRFRPPRLPRPRPRPDYTPRP | -0.02 |
| RRIRHRPPRLPRPRPRPIAEPRP | -0.103 |
| RRIRFRPPRLPRPRPRPSHIPRP | -0.216 |
| RRIRARPPRLPRPRPRPLMKPRP | 0.106 |
| RRIRERPPRLPRPRPRPSACPRP | 0.0132 |
| RRIRVRPPRLPRPRPRPHSDPRP | 0.0538 |
| RRIRWRPPRLPRPRPRPIEDPRP | -0.00101 |
| RRIRCRPPRLPRPRPRPQYMPRP | -0.784 |

| Sequence | shrunken log2 fold change |
| --- | --- |
| RRIRLRPPRLPRPRPRPYVFPRP | -0.515 |
| RRIRGRPPRLPRPRPRPNWPPRP | 0.306 |
| RRIRCRPPRLPRPRPRPPSGPRP | 0.233 |
| RRIRWRPPRLPRPRPRPWGVPRP | 0.132 |
| RRIRQRPPRLPRPRPRPHFAPRP | 0.0503 |
| RRIRTRPPRLPRPRPRPDPVPRP | -0.216 |
| RRIRNRPPRLPRPRPRPYGQPRP | -0.124 |
| RRIRTRPPRLPRPRPRPGCAPRP | 0.515 |
| RRIRWRPPRLPRPRPRPLGHPRP | 0.035 |
| RRIRPRPPRLPRPRPRPYWMPRP | -1.06 |
| RRIRGRPPRLPRPRPRPLEFPRP | 0.319 |
| RRIRMRPPRLPRPRPRPLTEPRP | 1.31 |
| RRIRWRPPRLPRPRPRPYFTPRP | -0.624 |
| RRIRLRPPRLPRPRPRPVQWPRP | 0.288 |
| RRIRPRPPRLPRPRPRPVQDPRP | -0.0784 |
| RRIRCRPPRLPRPRPRPSQEPRP | 0.0585 |
| RRIRDRPPRLPRPRPRPSQTPRP | -0.244 |
| RRIRYRPPRLPRPRPRPCYMPRP | 0.0232 |
| RRIRKRPPRLPRPRPRPIKDPRP | -0.00059 |
| RRIRNRPPRLPRPRPRPGQGPRP | -0.0357 |
| RRIRWRPPRLPRPRPRPPQFPRP | -0.108 |
| RRIRNRPPRLPRPRPRPVRFPRP | 0.0789 |
| RRIRGRPPRLPRPRPRPASSPRP | 0.653 |
| RRIRTRPPRLPRPRPRPGITPRP | -0.104 |
| RRIRPRPPRLPRPRPRPERCPRP | 0.271 |
